Legend:
Assay in all cases: cell_activity
[1] = test system: TALEN 3' monomer for SEQ 94 site (synthetic construct); conditions: pair with p1; corn protoplasts; unmethylated region
[2] = test system: TALEN 5' monomer for SEQ 34 site (synthetic construct); conditions: pair with p4; corn protoplasts; unmethylated region
[3] = test system: TALEN 5' monomer for SEQ 35 site (synthetic construct); conditions: pair with p2; corn protoplasts; unmethylated region
[4] = test system: TALEN 3' monomer for SEQ 93 site (synthetic construct); conditions: pair with p3; corn protoplasts; unmethylated region

## TGAGTTTGAGACCCACCTG (double strand) [TALEN site 94]
[1]
  activity (% integration): 16

## TCGTGTGACTGCTCCCAAA (double strand) [TALEN site 34]
[2]
  activity (% integration): 7

## TCTCCTATCATAACGTTTG (double strand) [TALEN site 35]
[3]
  activity (% integration): 16

## TCTACTAAAGAGGTAGCAC (double strand) [TALEN site 93]
[4]
  activity (% integration): 7
